Numbering of substitutions follows the chain as printed.
T1: monomeric C-reactive protein (CRP) (UniProt P02741 19-224)
T1 sequence (looked up): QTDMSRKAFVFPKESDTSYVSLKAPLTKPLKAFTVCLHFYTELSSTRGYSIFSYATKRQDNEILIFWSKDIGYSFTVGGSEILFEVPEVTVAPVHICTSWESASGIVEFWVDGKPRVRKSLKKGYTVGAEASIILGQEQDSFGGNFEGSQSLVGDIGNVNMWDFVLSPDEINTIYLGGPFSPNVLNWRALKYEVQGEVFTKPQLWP

B1: protective CFHT-I62-Y402 (truncated complement factor H ending in SFTL) (other)
chain: EDCNELPPRRNTEILTGSWSDQTYPEGTQAIYKCRPGYRSLGNIIMVCRKGEWVALNPLRKCQKRPCGHPGDTPFGTFTLTGGNVFEYGVKAVYTCNEGYQLLGEINYRECDTDGWTNDIPICEVVKCLPVTAPENGKIVSSAMEPDREYHFGQAVRFVCNSGYKIEGDEEMHCSDDGFWSKEKPKCVEISCKSPDVINGSPISQKIIYKENERFQYKCNMGYEYSERGDAVCTESGWRPLPSCEEKSCDNPYIPNGDYSPLRIKHRTGDEITYQCRNGFYPATRGNTAKCTSTGWIPAPRCTLKPCDYPDIKHGGLYHENMRRPYFPVAVGKYYSYYCDEHFETPSGSYWDHIHCTQDGWSPAVPCLRKCYFPYLENGYNQNYGRKFVQGKSIDVACHPGYALPKAQTTVTCMENGWSPTPRCIRVSFTL
notes: In the Western blot it was expressed in RPE1 cells from pCTM134 and from eCFH/T v4.1; also called CFHT-Protection; native protective CFHT
B2: CFHT-V62-H402 (risk variant of truncated CFH) (other)
chain: B1 chain with I44V, Y384H
notes: also called CFHT-Risk
B3: CFH-V62-H402-E936 (risk variant of full-length CFH) (other)
chain: EDCNELPPRRNTEILTGSWSDQTYPEGTQAIYKCRPGYRSLGNVIMVCRKGEWVALNPLRKCQKRPCGHPGDTPFGTFTLTGGNVFEYGVKAVYTCNEGYQLLGEINYRECDTDGWTNDIPICEVVKCLPVTAPENGKIVSSAMEPDREYHFGQAVRFVCNSGYKIEGDEEMHCSDDGFWSKEKPKCVEISCKSPDVINGSPISQKIIYKENERFQYKCNMGYEYSERGDAVCTESGWRPLPSCEEKSCDNPYIPNGDYSPLRIKHRTGDEITYQCRNGFYPATRGNTAKCTSTGWIPAPRCTLKPCDYPDIKHGGLYHENMRRPYFPVAVGKYYSYYCDEHFETPSGSYWDHIHCTQDGWSPAVPCLRKCYFPYLENGYNQNHGRKFVQGKSIDVACHPGYALPKAQTTVTCMENGWSPTPRCIRVKTCSKSSIDIENGFISESQYTYALKEKAKYQCKLGYVTADGETSGSITCGKDGWSAQPTCIKSCDIPVFMNARTKNDFTWFKLNDTLDYECHDGYESNTGSTTGSIVCGYNGWSDLPICYERECELPKIDVHLVPDRKKDQYKVGEVLKFSCKPGFTIVGPNSVQCYHFGLSPDLPICKEQVQSCGPPPELLNGNVKEKTKEEYGHSEVVEYYCNPRFLMKGPNKIQCVDGEWTTLPVCIVEESTCGDIPELEHGWAQLSSPPYYYGDSVEFNCSESFTMIGHRSITCIHGVWTQLPQCVAIDKLKKCKSSNLIILEEHLKNKKEFDHNSNIRYRCRGKEGWIHTVCINGRWDPEVNCSMAQIQLCPPPPQIPNSHNMTTTLNYRDGEKVSVLCQENYLIQEGEEITCKDGRWQSIPLCVEKIPCSQPPQIEHGTINSSRSSQESYAHGTKLSYTCEGGFRISEENETTCYMGKWSSPPQCEGLPCKSPPEISHGVVAHMSDSYQYGEEVTYKCFEGFGIDGPAIAKCLGEKWSHPPSCIKTDCLSLPSFENAIPMGEKKDVYKAGEQVTYTCATYYKMDGASNVTCINSRWTGRPTCRDTSCVNPPTVQNAYIVSRQMSKYPSGERVRYQCRSPYEMFGDEEVMCLNGNWTEPPQCKDSTGKCGPPPPIDNGDITSFPLSVYAPASSVEYQCQNLYQLEGNKRITCRNGQWSEPPKCLHPCVISREIMENYNIALRWTAKQKLYSRTGESVEFVCKRGYRLSSRSHTLRTTCWDGKLEYPTCAKR
notes: also called CFH-Risk; CFH-risk protein
B4: protective CFH-I62-Y402-E936 (full-length complement factor H) (other)
chain: B3 chain with V44I, H384Y
notes: In the Western blot it was expressed in RPE1 cells from plasmid pCTM133; also called CFH-Protection
B5: eCFHT-SK (engineered truncated CFH, I62-Y402, ending in SKSFTL) (other)
chain: EDCNELPPRRNTEILTGSWSDQTYPEGTQAIYKCRPGYRSLGNIIMVCRKGEWVALNPLRKCQKRPCGHPGDTPFGTFTLTGGNVFEYGVKAVYTCNEGYQLLGEINYRECDTDGWTNDIPICEVVKCLPVTAPENGKIVSSAMEPDREYHFGQAVRFVCNSGYKIEGDEEMHCSDDGFWSKEKPKCVEISCKSPDVINGSPISQKIIYKENERFQYKCNMGYEYSERGDAVCTESGWRPLPSCEEKSCDNPYIPNGDYSPLRIKHRTGDEITYQCRNGFYPATRGNTAKCTSTGWIPAPRCTLKPCDYPDIKHGGLYHENMRRPYFPVAVGKYYSYYCDEHFETPSGSYWDHIHCTQDGWSPAVPCLRKCYFPYLENGYNQNYGRKFVQGKSIDVACHPGYALPKAQTTVTCMENGWSPTPRCIRVSKSFTL
notes: Non-natural variant of human CFHT with SK inserted before the C-terminal SFTL; In the Western blot it was expressed from eCFH/T v4.2 in RPE1 cells; also called protective eCFHT-SK; truncated product of eCFH/T v4.2
B6: eCFHT-SE (engineered truncated CFH, I62-Y402, ending in SESFTL) (other)
chain: B5 chain with K429E
notes: The chain is built from the first 445 residues shared by CFH and CFHT, less the 18-residue signal peptide, plus the printed C-terminal SESFTL; His-tagged and purified from HEK293 cells; also called protective eCFHT-SE; truncated product of eCFH/T v4.3

Molecular target: T1, monomeric C-reactive protein (CRP)
Experiment: plate-based CRP binding assay, against protective CFH

Binder | fold better binding affinity than CFH
B1 | ~10 fold

Molecular target: T1, monomeric C-reactive protein (CRP)
Experiment: relative CRP-binding assay, detection antibody AbCam OX-24 (#Ab112197)

Binder | Binding Potential
B2 | 2
B1 | 87
B3 | 1
B4 | 10

Molecular target: T2, MDA-modified LDL particles
T2 construct: Not a plain protein; also called MDA-LDL; MDA adducts
Experiment: relative MDA-binding assay, detection antibody AbCam OX-24 (#Ab112197)

Binder | Binding Potential
B2 | 10
B1 | 32
B3 | 30
B4 | 75

Molecular target: T1, monomeric C-reactive protein (CRP)
Experiment: rank of binding affinity among six proteins, plate-based binding assays

Binder | Binding Affinity Rank (1 best to 6 worst)
B2 | 5 rank
B1 | 2 rank
B5 | 1 rank
B6 | 3 rank
B3 | 6 rank
B4 | 4 rank

Molecular target: T2, MDA-modified LDL particles
Experiment: as above

Binder | Binding Affinity Rank (1 best to 6 worst)
B2 | 5 rank
B1 | 1 rank
B5 | 3 rank
B6 | 4 rank
B3 | 6 rank
B4 | 2 rank

Molecular target: T2, MDA-modified LDL particles
Experiment: plate-based binding assay, His-tagged recombinant protein from HEK293 cells

Binder | Kd
B1 | 219 nM
B5 | 290 nM
B6 | 305 nM
B4 | 222 nM

Molecular target: T1, monomeric C-reactive protein (CRP)
Experiment: relative CRP-binding assay, percent of CFH-Risk, detection antibody AbCam OX-24 (#Ab112197)

Binder | % FH-Risk
B2 | 131%
B1 | 5900%
B3 | 100%
B4 | 656%

Molecular target: T2, MDA-modified LDL particles
Experiment: relative MDA-binding assay, percent of CFH-Risk, detection antibody AbCam OX-24 (#Ab112197)

Binder | % FH-Risk
B2 | 35%
B1 | 107%
B3 | 100%
B4 | 251%

Source: patent publication US20210338838A1 (UNIVERSITY OF UTAH RESEARCH FOUNDATION, published 2021)
